Test results reported in patent publication US20230028476A1 (EVOTEC INTERNATIONAL, published 2023).

Assays:
Test in all cases: cell-based or functional assay
[1] = molecular target: human IFN receptor on HEK-Blue IFN-γ cells (human)
human CD40 [2] = molecular target: T1, human CD40 (human, UniProt P25942 21-277)
human CD40 [3] = molecular target: T1, human CD40; remark: listed apart in the source
[4] = molecular target: human IFN receptor on HEK-Blue IFN-γ cells (human); remark: listed apart in the source
[5] = molecular target: human IFN receptor on HEK-Blue IFN-λ cells (human)

T1 sequence (P25942 21-277): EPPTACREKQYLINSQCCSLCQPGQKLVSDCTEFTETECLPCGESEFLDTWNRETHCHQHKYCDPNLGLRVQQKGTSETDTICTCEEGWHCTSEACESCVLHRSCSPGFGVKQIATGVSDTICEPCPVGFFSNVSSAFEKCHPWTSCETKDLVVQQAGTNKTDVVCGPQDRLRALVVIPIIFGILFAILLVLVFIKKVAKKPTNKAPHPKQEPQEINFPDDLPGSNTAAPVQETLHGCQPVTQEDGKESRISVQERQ

Binder	IFNγ EC50 (HEK-Blue IFNγ reporter cells) [1]	CD40 EC50 (HEK-Blue CD40L reporter cells) (human CD40 [2])	mean EC50, CD40 activity (HEK-Blue CD40L reporter cells) (human CD40 [3])	IFNγ activity EC50 (HEK-Blue IFNγ reporter cells) [4]	IFNλ EC50 (HEK-Blue IFNλ reporter cells) [5]
anti-CD40 antibody 3G5 (Celldex) (antibody, human IgG2, kappa) heavy: QVQLVESGGGVVQPGKSLRLSCAASGFTFSSNGIHWVRQAPGKGLEWVAVIWSDGSNKFYADSVKGRFTISRDNSKNTLYLQMNSLRAEDTAVYYCARASGSGSYYNFFDYWGQGTLVTVSSASTKGPSVFPLAPCSRSTSESTAALGCLVKDYFPEPVTVSWNSGALTSGVHTFPAVLQSSGLYSLSSVVTVPSSNFGTQTYTCNVDHKPSNTKVDKTVERKCCVECPPCPAPPVAGPSVFLFPPKPKDTLMISRTPEVTCVVVDVSHEDPEVQFNWYVDGVEVHNAKTKPREEQFNSTFRVVSVLTVVHQDWLNGKEYKCKVSNKGLPAPIEKTISKTKGQPREPQVYTLPPSREEMTKNQVSLTCLVKGFYPSDIAVEWESNGQPENNYKTTPPMLDSDGSFFLYSKLTVDKSRWQQGNVFSCSVMHEALHNHYTQKSLSLSPG light: not shown			9.3 ng/mL		
IFA43 (antibody, human IgG2, kappa) heavy: not shown light: DIQMTQSPSSVSASVGDRVTITCRASQGIYSWLAWYQQKPGKAPNLLIYTASTLQSGVPSRFSGSGSGTDFTLTISSLQPEDFATYYCQQANIFPLTFGGGTKVEIKRTVAAPSVFIFPPSDEQLKSGTASVVCLLNNFYPREAKVQWKVDNALQSGNSQESVTEQDSKDSTYSLSSTLTLSKADYEKHKVYACEVTHQGLSSPVTKSFNRGEC	< 0.001 ng/mL	50.8 ng/mL		< 0.01 ng/mL	
IFA44 (antibody, human IgG2, kappa) light: DIQMTQSPSSVSASVGDRVTITCRASQGIYSWLAWYQQKPGKAPNLLIYTASTLQSGVPSRFSGSGSGTDFTLTISSLQPEDFATYYCQQANIFPLTFGGGTKVEIKRTVAAPSVFIFPPSDEQLKSGTASVVCLLNNFYPREAKVQWKVDNALQSGNSQESVTEQDSKDSTYSLSSTLTLSKADYEKHKVYACEVTHQGLSSPVTKSFNRGECGGGGSGGGGSGGGGSGGGGSVPVARLHGALPDARGCHIAQFKSLSPQELQAFKRAKDALEESLLLKDCRCHSRLFPRTWDLRQLQVRERPMALEAELALTLKVLEATADTDPALVDVLDQPLHTLHHILSQFRACIQPQPTAGPRTRGRLHHWLYRLQEAPKKESPGCLEASVTFNLFRLLTRDLNCVASGDLCV heavy: not shown		41.4 ng/mL			0.153 ng/mL

Other lines, results leading:

IFNγ EC50 (HEK-Blue IFNγ reporter cells) [1]	CD40 EC50 (HEK-Blue CD40L reporter cells) (human CD40 [2])	mean EC50, CD40 activity (HEK-Blue CD40L reporter cells) (human CD40 [3])	IFNγ activity EC50 (HEK-Blue IFNγ reporter cells) [4]	IFNλ EC50 (HEK-Blue IFNλ reporter cells) [5]	Binder
15.4 ng/mL	65.6 ng/mL				IFA42 (antibody, human IgG2, kappa) light: DIQMTQSPSSVSASVGDRVTITCRASQGIYSWLAWYQQKPGKAPNLLIYTASTLQSGVPSRFSGSGSGTDFTLTISSLQPEDFATYYCQQANIFPLTFGGGTKVEIKRTVAAPSVFIFPPSDEQLKSGTASVVCLLNNFYPREAKVQWKVDNALQSGNSQESVTEQDSKDSTYSLSSTLTLSKADYEKHKVYACEVTHQGLSSPVTKSFNRGECGGGGSGGGGSGGGGSGGGGSQDPYVKEAENLKKYFNAGHSDVADNGTLFLGILKNWKEESDRKIMQSQIVSFYFKLFKNFKDDQSIQKSVETIKEDMNVKFFNSNKKKRDDFEKLTNYSVTDLNVQRKAIHELIQVMAELSPAAKTGKRKRSQMLFRGRRASQ heavy: not shown
	25.8 ng/mL			< 0.001 ng/mL	IFA45 (antibody, human IgG2, kappa) heavy: not shown light: DIQMTQSPSSVSASVGDRVTITCRASQGIYSWLAWYQQKPGKAPNLLIYTASTLQSGVPSRFSGSGSGTDFTLTISSLQPEDFATYYCQQANIFPLTFGGGTKVEIKRTVAAPSVFIFPPSDEQLKSGTASVVCLLNNFYPREAKVQWKVDNALQSGNSQESVTEQDSKDSTYSLSSTLTLSKADYEKHKVYACEVTHQGLSSPVTKSFNRGEC
